Series [1] addresses DivIVAEf (bacterial two-hybrid fusion) (Enterococcus faecalis JH2-2) (UniProt Q93C53). The series is described as follows: two-hybrid; bacterial two-hybrid (Di Lallo) in E. coli R721, vectors pcI434-L and pcIp22-L, 0.1 mM IPTG; residual β-galactosidase activity, less than 50% indicates a positive interaction.
Series [2] deals with the molecule itself. Put plainly: SEC-MALS; 1 mg purified 6×His-EF1025 on Superdex 200 in 50 mM Tris base, 400 mM NaCl, pH 7.4; also with 1 mM dithiothreitol. For orientation: Size exclusion chromatography separates by hydrodynamic size, large species first.

A word on the stoichiometry N: it is the number of molecules, sites or subunits per partner or assembly.

For the molecule “EF1025-c (AA80-209 of EF1025), bacterial two-hybrid fusion (domain or fragment)”, the residual β-galactosidase activity in series [1] stood at 14%.

B1: 6×His-EF1025 (natural protein, Enterococcus faecalis JH2-2, UniProt Q836T2 1-209, looked up)
chain: MKLSKRQEQIIAVVKEHQPVSGERISDILAVSRATLRSDLSFLTLSGILKASPKVGYTYESDNMEAFFFFDVFQTKVQEIMSPPLMVAQDTSIRDAITNLFMYDVGSLYVMDEAKELLGVLSRKDLLRASLNTNIDGTPVAVCMTRVPHVKTCTPEFTILEAADTLQKYEVDSLPVVEKENPKKVIGKITKTKILTYITQQAKEAAQNR
notes: hypothetical protein EF1025 of Enterococcus faecalis (209 AA), gene amplified with primers EF1025F-F/R and cloned into pET30a(+); Vector pET30a(+); also called pETEF1025; source: E. coli C41 (DE3), in lysate supernatant (pull-down); copies: 10
In the case of B1, in series [2], the “stoichiometry N” value came to 10.
